# Laboratory results taken from patent publication US20230340128A1 (Xencor, published 2023).
# How the values were obtained:
# [1] = target: T1, human mesothelin (MSLN) (human, UniProt Q13421 296-580, limits assumed); experiment: BLI (Octet), multiple concentrations, bsAb in 1+1 Fab-scFv-Fc format; lower table, column 'human MSLN (M)'
# T1 construct: Antigen of the Octet KD values
# [2] = target: T1, human mesothelin (MSLN); experiment: BLI (Octet), bsAb in 1+1 Fab-scFv-Fc format
# [3] = target: T2, MSLN on OVCAR8 cells (~90K MSLN antigens/cell) (UniProt Q13421 296-598); experiment: binding to OVCAR8 cells, MFI APC against mAb concentration
# [4] = target: T3, MSLN on OVCAR8 cells (~90K MSLN antigens/cell) (UniProt Q13421 296-598); experiment: flow cytometry on OVCAR8 cells, 1 h at 4 C, anti-human-Fc A647 secondary
# T3 construct: whole, on cells; Endogenous expression on a cancer cell line
# Description: (§1) In this experiment, 50,000 OVCAR8 cells (˜90K MSLN antigens/cell) were seeded per well in a plate. Anti-human-Fc secondary (A647) was added for 30 min at 4° C., and binding was assessed via FACs. FIG. 39C depicts that the CD28×MSLN bsAbs in neither 1+1-Fab-scFv format nor the 2+1 mAb-scFv format antibodies show any significant off target binding. In this experiment, 50,000 SKOV3 cells (˜9K MSLN antigens/cell) were seeded per well in a plate. Anti-human-Fc secondary (A647) was added for 30 min at 4° C., and binding was assessed via FACs.
# (§2) In order to assess the binding of MSLN×CD28 bsAbs in different formats, an experiment was conducted in which 50,000 OVCAR8 cells (˜90K MSLN antigens/cell) were seeded per well in a plate. Anti-human-Fc secondary (A647) was added for 30 min at 4° C., and binding was assessed via FACs.
# [5] = target: T3, MSLN on OVCAR8 cells (~90K MSLN …); experiment: as above; remark: listed apart in the source
# Description: as §1, §2
# [6] = target: T1, human mesothelin (MSLN); experiment: label in the legend box: nominal affinity of the MSLN binding domain (paragraph 422 calls such label values KD); method not stated on the sheet
# [7] = target: T4, human CD28 (human, UniProt P10747 19-152, limits assumed); experiment: label in the legend box: nominal affinity of the CD28 binding domain (paragraph 422 calls such label values KD); method not stated on the sheet
# T4 construct: also called Cluster of Differentiation 28; Tp44
# [8] = target: T1, human mesothelin (MSLN); experiment: KD quoted in the FIG. 25 legend; Octet (BLI) per FIGS. 20-21
# [9] = target: T2, MSLN on OVCAR8 cells (~90K MSLN …); experiment: binding to OVCAR8 cells, MFI APC against mAb concentration; remark: listed apart in the source
Binder,EC50 (read off the curve) [4] [µg/mL],EC50 (read off the curve) [5] [µg/mL],Kd [6] [nM],Kd [7] [nM],Kd [8] [nM],EC50 (read off the curve) [9] [µg/mL],other results
XENP32562 (bispecific antibody) chain 1: QVQLVQSGAEVKKPGASVKVSCKASGYTFTSYWMHWVRQAPGQGLEWMGMIHPNSDNTIYYEKFQGRVTMTVDKSISTAYMELSRLRSDDTAVYYCAIIITPVVPKFDYWGQGTLVTVSSASTKGPSVFPLAPSSKSTSGGTAALGCLVKDYFPEPVTVSWNSGALTSGVHTFPAVLQSSGLYSLSSVVTVPSSSLGTQTYICNVNHKPSDTKVDKKVEPKSCDKTHTCPPCPAPPVAGPSVFLFPPKPKDTLMISRTPEVTCVVVDVKHEDPEVKFNWYVDGVEVHNAKTKPREEEYNSTYRVVSVLTVLHQDWLNGKEYKCKVSNKALPAPIEKTISKAKGQPREPQVYTLPPSREEMTKNQVSLTCDVSGFYPSDIAVEWESDGQPENNYKTTPPVLDSDGSFFLYSKLTVDKSRWEQGDVFSCSVMHEALHNHYTQKSLSLSPGK chain 2: not shown chain 3: DIVMTQSPDSLAVSLGERATINCKASHDVLTSVAWYQQKPGQSPKLLIYWASTRHTGVPDRFTGSGSGTDFTLTISSLQAEDVAVYFCQQYSSYPLTFGAGTKLEIKRTVAAPSVFIFPPSDEQLKSGTASVVCLLNNFYPREAKVQWKVDNALQSGNSQESVTEQDSKDSTYSLSSTLTLSKADYEKHKVYACEVTHQGLSSPVTKSFNRGEC,,,,,,,Kd [1]: 0.74 nM; Kd [2]: 0.628 nM; Response [2]: 1.01; koff [2]: 0.000409 s⁻¹; kon [2]: 651000 M⁻¹ s⁻¹; EC50 (read off the curve) [3]: ~0.2 µg/mL
"XENP39566 (bispecific antibody, also called XENP39566 MSLN (9 nM) x CD28 (180 nM) 1+1 Fab-scFv-Fc) heavy: QVQLVQSGAEVKKPGASVKVSCKASGYTFTSYWMHWVRQAPGQGLEWMGWIHPNSDNTIYYEKFQGRVTMTVDKSISTAYMELSRLRSDDTAVYYCAIIITPVVPKFDYWGQGTLVTVSSASTKGPSVFPLAPSSKSTSGGTAALGCLVKDYFPEPVTVSWNSGALTSGVHTFPAVLQSSGLYSLSSVVTVPSSSLGTQTYICNVNHKPSDTKVDKKVEPKSCDKTHTCPPCPAPPVAGPSVFLFPPKPKDTLMISRTPEVTCVVVDVKHEDPEVKFNWYVDGVEVHNAKTKPREEEYNSTYRVVSVLTVLHQDWLNGKEYKCKVSNKALPAPIEKTISKAKGQPREPQVYTLPPSREEMTKNQVSLTCDVSGFYPSDIAVEWESDGQPENNYKTTPPVLDSDGSFFLYSKLTVDKSRWEQGDVFSCSVLHEALHSHYTQKSLSLSPGK scFv-Fc: not shown light: DIVMTQSPDSLAVSLGERATINCKASHDVGTSVAWYQQKPGQSPKLLIYWASTRHTGVPDRFTGSGSGTDFTLTISSLQAEDVAVYFCQQYSSYPLTFGAGTKLEIKRTVAAPSVFIFPPSDEQLKSGTASVVCLLNNFYPREAKVQWKVDNALQSGNSQESVTEQDSKDSTYSLSSTLTLSKADYEKHKVYACEVTHQGLSSPVTKSFNRGEC",~4,~4,9,180,,,
XENP32852 (bispecific antibody) chain 1: QVQLVQSGAEVKKPGASVKVSCKASGYTFTSYWMHWVRQAPGQGLEWMGMIHPNSDNTIYYEKFQGRVTMTVDKSISTAYMELSRLRSDDTAVYYCAIIITPVVPKFDYWGQGTLVTVSSASTKGPSVFPLAPSSKSTSGGTAALGCLVKDYFPEPVTVSWNSGALTSGVHTFPAVLQSSGLYSLSSVVTVPSSSLGTQTYICNVNHKPSDTKVDKKVEPKSCDKTHTCPPCPAPPVAGPSVFLFPPKPKDTLMISRTPEVTCVVVDVKHEDPEVKFNWYVDGVEVHNAKTKPREEEYNSTYRVVSVLTVLHQDWLNGKEYKCKVSNKALPAPIEKTISKAKGQPREPQVYTLPPSREEMTKNQVSLTCDVSGFYPSDIAVEWESDGQPENNYKTTPPVLDSDGSFFLYSKLTVDKSRWEQGDVFSCSVMHEALHNHYTQKSLSLSPGK chain 2: QVQLVQSGAEVKKPGASVKVSCKASGYTFTSYWMHWVRQAPGQGLEWMGMIHPNSDNTIYYEKFQGRVTMTVDKSISTAYMELSRLRSDDTAVYYCAIIITPVVPKFDYWGQGTLVTVSSASTKGPSVFPLAPSSKSTSGGTAALGCLVKDYFPEPVTVSWNSGALTSGVHTFPAVLQSSGLYSLSSVVTVPSSSLGTQTYICNVNHKPSNTKVDKKVEPKSCGGGGSGGGGSQAVVTQEPSLTVSPGGTVTLTCGSSTGAVTTSNYANWVQQKPGKSPRGLIGGTNKRAPGVPARFSGSLLGGKAALTISGAQPEDEADYYCALWYSNHWVFGGGTKLTVLGKPGSGKPGSGKPGSGKPGSEVQLVESGGGLVQPGGSLRLSCAASGFTFSTYAMNWVRQAPGKGLEWVGRIRSKANNYATYYADSVKGRFTISRDDSKNTLYLQMNSLRAEDTAVYYCVRHGNFGDSYVSWFAYWGQGTLVTVSSGGGGSGGGGSKTHTCPPCPAPPVAGPSVFLFPPKPKDTLMISRTPEVTCVVVDVKHEDPEVKFNWYVDGVEVHNAKTKPREEQYNSTYRVVSVLTVLHQDWLNGKEYKCKVSNKALPAPIEKTISKAKGQPREPQVYTLPPSREQMTKNQVKLTCLVKGFYPSDIAVEWESNGQPENNYKTTPPVLDSDGSFFLYSKLTVDKSRWQQGNVFSCSVMHEALHNHYTQKSLSLSPGK chain 3: DIVMTQSPDSLAVSLGERATINCKASHDVGTSVAWYQQKPGQSPKLLIYWASTRHTGVPDRFTGSGSGTDFTLTISSLQAEDVAVYFCQQYYSYPLTFGAGTKLEIKRTVAAPSVFIFPPSDEQLKSGTASVVCLLNNFYPREAKVQWKVDNALQSGNSQESVTEQDSKDSTYSLSSTLTLSKADYEKHKVYACEVTHQGLSSPVTKSFNRGEC,,,,,3.9,~0.06,
XENP32853 (bispecific antibody) chain 1: QVQLVQSGAEVKKPGASVKVSCKASGYTFTSYWMHWVRQAPGQGLEWMGMIHPNSDNTIYYEKFQGRVTMTVDKSISTAYMELSRLRSDDTAVYYCAIIITPVVPKFDYWGQGTLVTVSSASTKGPSVFPLAPSSKSTSGGTAALGCLVKDYFPEPVTVSWNSGALTSGVHTFPAVLQSSGLYSLSSVVTVPSSSLGTQTYICNVNHKPSDTKVDKKVEPKSCDKTHTCPPCPAPPVAGPSVFLFPPKPKDTLMISRTPEVTCVVVDVKHEDPEVKFNWYVDGVEVHNAKTKPREEEYNSTYRVVSVLTVLHQDWLNGKEYKCKVSNKALPAPIEKTISKAKGQPREPQVYTLPPSREEMTKNQVSLTCDVSGFYPSDIAVEWESDGQPENNYKTTPPVLDSDGSFFLYSKLTVDKSRWEQGDVFSCSVMHEALHNHYTQKSLSLSPGK chain 2: QVQLVQSGAEVKKPGASVKVSCKASGYTFTSYWMHWVRQAPGQGLEWMGMIHPNSDNTIYYEKFQGRVTMTVDKSISTAYMELSRLRSDDTAVYYCAIIITPVVPKFDYWGQGTLVTVSSASTKGPSVFPLAPSSKSTSGGTAALGCLVKDYFPEPVTVSWNSGALTSGVHTFPAVLQSSGLYSLSSVVTVPSSSLGTQTYICNVNHKPSNTKVDKKVEPKSCGGGGSGGGGSQAVVTQEPSLTVSPGGTVTLTCGSSTGAVTTSNYANWVQQKPGKSPRGLIGGTNKRAPGVPARFSGSLLGGKAALTISGAQPEDEADYYCALWYSNHWVFGGGTKLTVLGKPGSGKPGSGKPGSGKPGSEVQLVESGGGLVQPGGSLRLSCAASGFTFSTYAMNWVRQAPGKGLEWVGRIRSKYNNYATYYADSVKGRFTISRDDSKNTLYLQMNSLRAEDTAVYYCVRHGNFGDEYVSWFAYWGQGTLVTVSSEPKSSDKTHTCPPCPAPPVAGPSVFLFPPKPKDTLMISRTPEVTCVVVDVKHEDPEVKFNWYVDGVEVHNAKTKPREEQYNSTYRVVSVLTVLHQDWLNGKEYKCKVSNKALPAPIEKTISKAKGQPREPQVYTLPPSREQMTKNQVKLTCLVKGFYPSDIAVEWESNGQPENNYKTTPPVLDSDGSFFLYSKLTVDKSRWQQGNVFSCSVMHEALHNHYTQKSLSLSPGK chain 3: DIVMTQSPDSLAVSLGERATINCKASHDVGTSVAWYQQKPGQSPKLLIYWASTRHTGVPDRFTGSGSGTDFTLTISSLQAEDVAVYFCQQYYSYPLTFGAGTKLEIKRTVAAPSVFIFPPSDEQLKSGTASVVCLLNNFYPREAKVQWKVDNALQSGNSQESVTEQDSKDSTYSLSSTLTLSKADYEKHKVYACEVTHQGLSSPVTKSFNRGEC,,,,,3.9,~0.06,
"XENP39554 (bispecific antibody, also called XENP39554 MSLN (0.3 nM) x CD28 (180 nM) 1+1 Fab-scFv-Fc) heavy: QVQLVQSGAEVKKPGASVKVSCKASGYTFTSYWMHWVRQAPGQGLEWMGMIHPNSDNTIYYEKFQGRVTMTVDKSISTAYMELSRLRSDDTAVYYCAIIITPVVPKFDYWGQGTLVTVSSASTKGPSVFPLAPSSKSTSGGTAALGCLVKDYFPEPVTVSWNSGALTSGVHTFPAVLQSSGLYSLSSVVTVPSSSLGTQTYICNVNHKPSDTKVDKKVEPKSCDKTHTCPPCPAPPVAGPSVFLFPPKPKDTLMISRTPEVTCVVVDVKHEDPEVKFNWYVDGVEVHNAKTKPREEEYNSTYRVVSVLTVLHQDWLNGKEYKCKVSNKALPAPIEKTISKAKGQPREPQVYTLPPSREEMTKNQVSLTCDVSGFYPSDIAVEWESDGQPENNYKTTPPVLDSDGSFFLYSKLTVDKSRWEQGDVFSCSVLHEALHSHYTQKSLSLSPGK scFv-Fc: not shown light: DIVMTQSPDSLAVSLGERATINCKASHDVGTSVAWYQQKPGQSPKLLIYWASTRHTGVPDRFTGSGSGTDFTLTISSLQAEDVAVYFCQQYSSYPLTFGAGTKLEIKRTVAAPSVFIFPPSDEQLKSGTASVVCLLNNFYPREAKVQWKVDNALQSGNSQESVTEQDSKDSTYSLSSTLTLSKADYEKHKVYACEVTHQGLSSPVTKSFNRGEC",~0.01,~0.01,0.3,180,,,
